# This sample holds only a part of the variants without activity.
# B1: TPR 5TU (parent)
# chain: GGAUCUUCUCGAUCUAACAAAAAAGACAAAUCUGCCACAAAGCUUGAGAGCAUCUUCGGAUGCAGAGGCGGCAGCCUUCGGUGGCGCGAUAGCGCCAACGUUCUCAACUAUGACACGCAAAACGCGUGCUCCGUUGAAUGGAGUUUAUCAUG
# Variants of: B1
# Test: polymerase ribozyme fitness, log enrichment relative to wild type (log ratio); higher = more active; in vitro selection for triplet polymerase activity
# Outline: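 Input and output libraries were sequenced on Illumina after a single in vitro selection round, run in triplicate on PCR-built, transcribed mutant libraries of each subunit of a heterodimeric triplet polymerase ribozyme. Selection annealed libraries to a biotinylated primer, the partner subunit and triplets, incubated them frozen at −7 °C, then gel-excised extended constructs for streptavidin-bead capture and RT-PCR. Genotypes with ≥10 input reads and ≥1 read per output were kept. Fitness is the logarithm, taken in base 2, of genotype enrichment divided by wild-type enrichment, using inverse-variance-weighted replicate averages.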
row,Variant,polymerase ribozyme fitness (log ratio)
1,GGAUCUUCUCGAUCUAACAAAAAAGACAAAUGUGCCACAAAGCUUGAGCGCAUCUUCGGAUGCAGAGGCGGCAGCCUUCGGUGGCGCGAUAGCGCCAACGUUCUCAACUAUGACACGCAAAACGCGUGCUCCGUUGAAUGGAGUUUAUCAUG,≤ -4.2
2,GGAUCUUCUCGAUCUAACAAAAAAGACAAAUGUGCCACAAAGCUUGAGAGCAUAUUCGGAUGCAGAGGCGGCAGUCAUCGGUGGUGCGAUAGCGCCAACGUUCUCGACUAUGACACGCAAAACGCGUGCUCCGUCGAAUGGAGUUUAUCAUG,≤ -4.2
3,GGAUCUUCUCGAUCUAACAAAAAAGACAAAUGUGCCACAAAGCUUGAGAGCUUCUUCGGAUGCAGAGGCGGCAGCCUUCGGUGGCGCGAUAGCGCCAAUGUUCUCGACUAUGACACGCAAAACUCGUGCUACGUUGAAUGGAGUUUAUCAUG,≤ -4.2
4,GGAUCUUCUCGAUCUAACAAAAAAGACAAAUGUGCCACAAAGCUUGCGAGCAUCAGCGGAUGCAGAUGCGGCAGCCUUCGGUGGCGCAAUAGCGCCAACCUUCUUAACUAUGACACGCAAAACGCGUGCUCCGUUGUAUGUAGUUUAUCAUG,≤ -4.2
5,GGAUCUUCUCGAUCUAACAAAAAAGACAAAUGUGCCACAAAGCUUGAGAGCAUCUUCGGAUGCAGAGGCGGCAGCCUUCGGUGGCGCGAUAGCGCUAACGUUCUCAACUAUGACAGGCAAAACGCGUGCUCCGUUGAAUGUAGUUUAUCAUG,≤ -4.2
6,GGAUCUUCUCGAUCUAACAAAAAAGACAAAUGUGCCACAAAGCUUGAGAGCAUCUUCGGAUGCAGAGGCGGCAGCCUUCGGUGGCGCGAUAGCGCCAACGUUCUUAACUAUGACACGCAAAACGCGUGCUCCGUUGAAUGGAGUUUAUCAUG,≤ -4.2
7,GGAUCUUCUCGAUCUAACAAAAAAGACAAAUGUGCCACAAAGCUUGAGAGCAUCUUCGGAUGCAGAGGCGGCAGCCUUCGGUGGGGCGAGAGCGCCAACGUUCUCAACUAUGACACGAAAAACGCGUGCUCCUUUGAAUCGAGUUUAUGAUG,≤ -4.2
8,GGAUCUUCUCGAUCUAACAAAAAAGACAAAUGUGCCACAAAGCUUGAGUGCAUCUUCGGAUGCAGAGGCGGCAUCCGUCGGUGGCGCGUUAGCGCCAACGUUCUCAACUAUGACACGCAAAACGCGUGCUCCGUUGAAUGGAGUUUAUCAUG,≤ -4.2
9,GGAUCUUCUCGAUCUAACAAAAAAGACAAAUGUGCCACAAACCAUGAGAGCAUCUUCGGAUGCAGAGGCGGCAGCCUUCGGUGGCGCCAUAGCGUCAACGUUGUCAACUAUGACACGCAAAACGCGUGCUCCGUUGAAUGGAGUUUAUCAUG,≤ -4.2
10,GGAUCUUCUCGAUCUAACAAAAAAGACAAAUGUGCCACAAAGCUUGAGAGCAUCUUCGGAUGCAGAGGCGGCAGCCUUCGGUGGCGUGAUAGCGCCAACGUUCUCAUCUAUGCCAAGCAAAACGCGUGCUCCGUUGAAUGGAGUUUAUCAUG,≤ -4.2
11,GGAUCUUCUCGAUCUAACAAAAAAGACAAAUGUGCCACAAAGCUUGAGAGCAUCUUCGGAUGCAGAGGCGGCAGCCUUCGGUGGCGCGAUCGCGCCAACGUUCUCAACUAUGACACGCAAAACGCGUGCUCCGUUGAAGGGAGUUUAUCAUG,≤ -4.2
12,GGAUCUUCUCGAUCUAACAAAAAAGACAAAUGUGCCAGAAAGCUUGAGAGCAUCUUCGGAUGCAGAGGCGGCAGCCUUCGGUGGCGCGAUAGGGCCAACGUUCUCAACUAUGACACGCAAAACGCGUGCUCCUUUGAAUGGAGUUUAUCAUG,-3.72
13,GGAUCUUCUCGAUCUAACAAAAAAGACAAAUGUGCUACAAAGCUUGAGAGCAUCUUCGGAUGCUGAGGCGGCAGCCUUCGGUGGCGCGAUAGCGCUAACGUUCUCACCUAUGACACUCAAAACGCGUGCUCCGCUGAAUGGAGUUUAUCCUG,≤ -4.2
14,GGAUCUUCUCGAUCUAACAAAAAAGACAAAUGUGCCACAAAGCUUGAUAGCAUCUUCGGAUGCAGAGACGGCAGCCUUCGGUGGCGCGAUAGCGCCAACGUUCUCAACUAUGACACGCAAAACGCGUGCUCCGAUGAAUGGAGUCUAUCAUG,≤ -4.2
15,GGAUCUUCUCGAUCUAACAAAAAAGACAAAUGUGCCACAAAGCUUGACAGCACCUUCGGAUGCAGAGGCGGCAGCCUUCGGGGGCGCGAUAGCGCCAACGUUCUCAACUAUGACACGCAAAACGCGUGCUCCGUUGAAUGGAGUUUAUCAUG,≤ -4.2
16,GGAUCUUCUCGAUCUAACAAAAAAGACAAAUGUGCCACAAAGCUUGAGCGCAUCUUCGGAUGCAGAGGCGGCAGCCUUCGGUGGCGCGAUAGCGCCAACGUUCUCAACUAUGACACGUAAAACGCGUGCUCCGUUGAAUGGAGUUUAUCAUG,≤ -4.2
17,GGAUCUUCUCGAUCUAACAAAAAAGACAAAUGUGCCACAAAGCUUGAGAGCAUCUUCGGAUGCAGAGGCGGCAGCCUUCGGUGGCGCGAUAGCGCCAAUGUUCUCAACUAUGACACGCAAAACGCGUGCUCCGUUGAAUGGAGUUUAUCAUG,≤ -4.2
18,GGAUCUUCUCGAUCUAACAAAAAAGACAAAUGUGCCACAUAGCUUGAGAGCAUCUUUGGAUGCAGAGGCGGCAGCCUUCGGUGGCGCGAUAGCGCCAACGUUCUCAACUAUGACACGCAAAACGCGUGCUCCGUGGAAUGGAGUUUAUCAUG,≤ -4.2
19,GGAUCUUCUCGAUCUAACAAAAAAGACAAAUGUGCCACAAAGCUUGAGAGCAUUUUCGGAUGCAGAGGCGGCCGCCUUUGGUGGCGGGAUAGCGCCAACGUUCUCAACUAUGACACGCAAAACGCGUGCUCCGUUGAAUGGAGUGUAUCAUG,≤ -4.2
